In patent US20260015426A1 (23ANDME, published 2026):

T1: hu-M-IL1RAP construct, positions S21-T367 (extracellular domain of the membrane form of human IL1RAP) (human, UniProt Q9NPH3 21-367)
T1 construct: Biotinylated when captured on the Biacore chip
T1 sequence: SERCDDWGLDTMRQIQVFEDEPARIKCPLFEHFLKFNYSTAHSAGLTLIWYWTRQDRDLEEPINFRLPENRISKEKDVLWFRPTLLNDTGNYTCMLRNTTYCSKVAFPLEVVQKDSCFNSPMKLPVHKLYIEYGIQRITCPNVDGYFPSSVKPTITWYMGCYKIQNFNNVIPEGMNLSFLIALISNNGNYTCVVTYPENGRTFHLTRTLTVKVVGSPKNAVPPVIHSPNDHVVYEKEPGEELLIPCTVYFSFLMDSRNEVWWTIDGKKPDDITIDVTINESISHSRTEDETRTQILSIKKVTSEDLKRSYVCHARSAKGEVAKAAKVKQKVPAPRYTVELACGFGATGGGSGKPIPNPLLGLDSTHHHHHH

T2: cyno-M-IL1RAP construct, positions S21-T367 (cynomolgus monkey, UniProt P59822 21-367 (rhesus entry))
T2 construct: Biotinylated when captured on the Biacore chip; also called cy-M-IL1RAP
T2 sequence: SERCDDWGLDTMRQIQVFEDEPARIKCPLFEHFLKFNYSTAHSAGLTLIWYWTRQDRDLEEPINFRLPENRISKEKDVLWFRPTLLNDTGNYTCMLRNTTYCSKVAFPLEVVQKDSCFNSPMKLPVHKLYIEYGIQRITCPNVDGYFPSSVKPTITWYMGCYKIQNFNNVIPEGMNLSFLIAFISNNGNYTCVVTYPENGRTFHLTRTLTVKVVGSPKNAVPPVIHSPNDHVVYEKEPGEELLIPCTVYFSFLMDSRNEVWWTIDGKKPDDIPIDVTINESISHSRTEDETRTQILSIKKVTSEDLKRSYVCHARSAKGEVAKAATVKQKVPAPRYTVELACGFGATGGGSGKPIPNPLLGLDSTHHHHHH

T3: human IL1RAP (hu-IL1RAP) on human cells (human, UniProt Q9NPH3 21-570)
T3 sequence: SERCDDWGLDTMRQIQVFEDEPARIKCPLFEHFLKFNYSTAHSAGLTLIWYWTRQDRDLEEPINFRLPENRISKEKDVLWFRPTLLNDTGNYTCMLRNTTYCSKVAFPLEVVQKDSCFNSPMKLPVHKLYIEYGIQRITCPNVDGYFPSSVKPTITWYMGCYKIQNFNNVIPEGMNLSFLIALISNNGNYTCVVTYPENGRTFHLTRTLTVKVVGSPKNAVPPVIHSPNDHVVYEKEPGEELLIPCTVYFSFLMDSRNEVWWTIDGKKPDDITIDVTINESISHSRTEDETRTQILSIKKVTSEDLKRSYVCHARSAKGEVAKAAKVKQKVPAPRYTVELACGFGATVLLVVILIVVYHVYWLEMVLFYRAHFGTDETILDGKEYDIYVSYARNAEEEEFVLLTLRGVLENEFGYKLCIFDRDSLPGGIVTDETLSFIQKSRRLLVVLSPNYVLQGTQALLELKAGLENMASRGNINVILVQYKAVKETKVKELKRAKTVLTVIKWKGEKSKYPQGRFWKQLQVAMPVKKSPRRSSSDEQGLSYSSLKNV


Tests used:
[1] = target: T1, hu-M-IL1RAP construct, positions …; assay: SPR, against YKD
[2] = target: T2, cyno-M-IL1RAP construct, positions …; assay: SPR, against YKD
[3] = target: T3, human IL1RAP (hu-IL1RAP) on human cells; assay: cell-based or functional assay
[4] = target: T1, hu-M-IL1RAP construct, positions …; assay: SPR, IgG analyte (apparent), pH 7.4, 37 C
[5] = target: T2, cyno-M-IL1RAP construct, positions …; assay: SPR, IgG analyte (apparent), pH 7.4, 37 C
[6] = target: T4, biotinylated human FcRn (Acro biosystems, catalogue number FCN-H52W7) (human, UniProt P55899 24-297; P61769 21-119, biotinylated); assay: SPR steady state, FcRn captured, 25 C, pH 6.0; pH 6.0
T4 construct: Bought reagent; also called hu-FcRn

[7] = target: T5, biotinylated cyno FcRn (Acro biosystems, catalogue number FCM-C5284) (cynomolgus monkey, UniProt Q8SPV9 24-297; Q8SPW0 21-119, limits assumed, biotinylated); assay: as above
T5 construct: Bought reagent

[8] = target: T1, hu-M-IL1RAP construct, positions …; assay: SPR, against YIS
[9] = target: T2, cyno-M-IL1RAP construct, positions …; assay: SPR, against YIS
[10] = target: T1, hu-M-IL1RAP construct, positions …; assay: SPR, Fab analyte, 25 C
[11] = target: T1, hu-M-IL1RAP construct, positions …; assay: SPR, Fab against parent Fab
[12] = target: T1, hu-M-IL1RAP construct, positions …; assay: phage display selection of affinity maturation libraries + NGS; enrichment of the mutation Y30W (VL)
[13] = target: T1, hu-M-IL1RAP construct, positions …; assay: phage display selection of affinity maturation libraries + NGS; enrichment of the mutation L33G (VL)
[14] = target: T1, hu-M-IL1RAP construct, positions …; assay: phage display selection of affinity maturation libraries + NGS; enrichment of the mutation W92K (VL)
[15] = target: T1, hu-M-IL1RAP construct, positions …; assay: phage display selection of affinity maturation libraries + NGS; enrichment of the mutation W92L (VL)

T4 sequence (P55899 24-297 limits assumed, chain 1 of 2): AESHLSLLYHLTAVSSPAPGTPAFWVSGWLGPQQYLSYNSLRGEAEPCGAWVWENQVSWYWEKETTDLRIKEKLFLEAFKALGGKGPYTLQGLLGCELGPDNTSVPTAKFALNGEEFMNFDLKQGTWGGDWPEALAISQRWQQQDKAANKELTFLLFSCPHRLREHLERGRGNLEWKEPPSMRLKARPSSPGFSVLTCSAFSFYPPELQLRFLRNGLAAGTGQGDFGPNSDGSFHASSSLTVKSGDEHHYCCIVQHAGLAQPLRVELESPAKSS
T4 sequence (P61769 21-119 limits assumed, chain 2 of 2): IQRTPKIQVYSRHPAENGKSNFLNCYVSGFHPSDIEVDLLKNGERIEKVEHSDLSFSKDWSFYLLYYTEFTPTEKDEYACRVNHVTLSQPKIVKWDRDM

Binder | Kd [4] | koff [4] | kon [4] | Kd [5] | koff [5] | kon [5] | Kd [10] | koff [10] | kon [10] | Fold Improvement in KD @ 25° C. [11] | further results
h11C5 variant YKD/YTE (antibody, human IgG1, kappa, N297G, YKD with M252Y/S254T/T256E (Eu index) in the Fc; N297G; also called 11C5-YKD/YTE; YKDNTE) heavy: EVQLVESGGGLVQPGGSLRLSCAASGFTFSNYAMSWVRQAPGKGLEWVATVTEGGDYNYYLDDVKGRFTISRDNAKNSLYLQMNSLRAEDTAVYYCARDDWPYFFDYWGQGTLVTVSSASTKGPSVFPLAPSSKSTSGGTAALGCLVKDYFPEPVTVSWNSGALTSGVHTFPAVLQSSGLYSLSSVVTVPSSSLGTQTYICNVNHKPSNTKVDKKVEPKSCDKTHTCPPCPAPELLGGPSVFLFPPKPKDTLYITREPEVTCVVVDVSHEDPEVKFNWYVDGVEVHNAKTKPREEQYGSTYRVVSVLTVLHQDWLNGKEYKCKVSNKALPAPIEKTISKAKGQPREPQVYTLPPSRDELTKNQVSLTCLVKGFYPSDIAVEWESNGQPENNYKTTPPVLDSDGSFFLYSKLTVDKSRWQQGNVFSCSVMHEALHNHYTQKSLSLSPGK light: DIQMTQSPSSLSASVGDRVTITCRASENIYSNLAWYQQKPGKSPKLLVYGYKNLADGVPSRFSGSGSGTDYTLTISSLQPEDFATYYCQHFKTTPRTFGGGTKVEIKRTVAAPSVFIFPPSDEQLKSGTASVVCLLNNFYPREAKVQWKVDNALQSGNSQESVTEQDSKDSTYSLSSTLTLSKADYEKHKVYACEVTHQGLSSPVTKSFNRGEC | 25.4 pM | 5.12e-05 s⁻¹ | 2.02e+06 M⁻¹ s⁻¹ | 21.9 pM | 4.9e-05 s⁻¹ | 2.24e+06 M⁻¹ s⁻¹ | – | – | – | – | KD YTE/KD Parental [1]: 0.84 ratio; KD YTE/KD Parental [2]: 0.98 ratio; CD4+ T cells, IL-33+IL-12 stimulated IFN-γ, IC50 [3]: 44000 pM; HEK-Blue, IL-1β, IC50 [3]: 510 pM; HEK-Blue, IL-33, % inhibition at 100 nM [3]: 97%; HEK-Blue, IL-33, IC50 [3]: 3300 pM; HEK-Blue, IL-36β, IC50 [3]: 900 pM; HEKn, IL-36β stimulated IL-8, IC50 [3]: 1160 pM; NK cells, IL-33+IL-12 stimulated IFN-γ, IC50 [3]: 1320 pM; PHLF, IL-1α stimulated IL-8, IC50 [3]: 6470 pM; PHLF, IL-36β stimulated IL-8, IC50 [3]: 500 pM; basophils, IL-33 stimulated p38 phosphorylation, IC50 [3]: 41000 pM; monocytes, IL-1β stimulated IL-6, IC50 [3]: 158 pM; Kd [6]: 130000 pM; Kd [7]: 21400 pM
h11C5 variant YIS/YTE (antibody, human IgG1, kappa, N297G, YIS with M252Y/S254T/T256E (Eu index) in the Fc; N297G; also called 11C5-YIS/YTE) heavy: EVQLVESGGGLVQPGGSLRLSCAASGFTFSNYAMSWVRQAPGKGLEWVATSTEGGDYNYYLDDVKGRFTISRDNAKNSLYLQMNSLRAEDTAVYYCARDRWPYFFDYWGQGTLVTVSSASTKGPSVFPLAPSSKSTSGGTAALGCLVKDYFPEPVTVSWNSGALTSGVHTFPAVLQSSGLYSLSSVVTVPSSSLGTQTYICNVNHKPSNTKVDKKVEPKSCDKTHTCPPCPAPELLGGPSVFLFPPKPKDTLYITREPEVTCVVVDVSHEDPEVKFNWYVDGVEVHNAKTKPREEQYGSTYRVVSVLTVLHQDWLNGKEYKCKVSNKALPAPIEKTISKAKGQPREPQVYTLPPSRDELTKNQVSLTCLVKGFYPSDIAVEWESNGQPENNYKTTPPVLDSDGSFFLYSKLTVDKSRWQQGNVFSCSVMHEALHNHYTQKSLSLSPGK light: DIQMTQSPSSLSASVGDRVTITCRASENIYSNLAWYQQKPGKSPKLLVYGYKNLADGVPSRFSGSGSGTDYTLTISSLQPEDFATYYCQHFITTPRTFGGGTKVEIKRTVAAPSVFIFPPSDEQLKSGTASVVCLLNNFYPREAKVQWKVDNALQSGNSQESVTEQDSKDSTYSLSSTLTLSKADYEKHKVYACEVTHQGLSSPVTKSFNRGEC | 13 pM | 4.43e-05 s⁻¹ | 3.42e+06 M⁻¹ s⁻¹ | 7.98 pM | 3.07e-05 s⁻¹ | 3.85e+06 M⁻¹ s⁻¹ | – | – | – | – | KD YTE/KD Parental [8]: 0.99 ratio; KD YTE/KD Parental [9]: 0.69 ratio
K1 Fab (VL Y30W) (Fab, V domains shown, Fab with 8xHis tag) VH: EVQLVESGGGLVQPGGSLRLSCAASGFTFSNYAMSWVRQAPGKGLEWVATVTEGGDYNYYLDDVKGRFTISRDNAKNSLYLQMNSLRAEDTAVYYCARDRWPYFFDYWGQGTLVTVSS VL: DIQMTQSPSSLSASVGDRVTITCRASENIWSNLAWYQQKPGKSPKLLVYGAKNLADGVPSRFSGSGSGTDYTLTISSLQPEDFATYYCQHFWTTPRTFGGGTKVEIK | – | – | – | – | – | – | 37.2 pM | 0.00018 s⁻¹ | 4.82e+06 M⁻¹ s⁻¹ | 9.06 fold | Enrichment ratio (at the highest selection stringency) [12]: 3.52 ratio
K2 Fab (VL L33G) (Fab, V domains shown, Fab with 8xHis tag) VH: EVQLVESGGGLVQPGGSLRLSCAASGFTFSNYAMSWVRQAPGKGLEWVATVTEGGDYNYYLDDVKGRFTISRDNAKNSLYLQMNSLRAEDTAVYYCARDRWPYFFDYWGQGTLVTVSS VL: DIQMTQSPSSLSASVGDRVTITCRASENIYSNGAWYQQKPGKSPKLLVYGAKNLADGVPSRFSGSGSGTDYTLTISSLQPEDFATYYCQHFWTTPRTFGGGTKVEIK | – | – | – | – | – | – | 34.6 pM | 0.000158 s⁻¹ | 4.57e+06 M⁻¹ s⁻¹ | 9.74 fold | Enrichment ratio (at the highest selection stringency) [13]: 1.71 ratio
K3 Fab (VL W92K) (Fab, V domains shown, Fab with 8xHis tag) VH: EVQLVESGGGLVQPGGSLRLSCAASGFTFSNYAMSWVRQAPGKGLEWVATVTEGGDYNYYLDDVKGRFTISRDNAKNSLYLQMNSLRAEDTAVYYCARDRWPYFFDYWGQGTLVTVSS VL: DIQMTQSPSSLSASVGDRVTITCRASENIYSNLAWYQQKPGKSPKLLVYGAKNLADGVPSRFSGSGSGTDYTLTISSLQPEDFATYYCQHFKTTPRTFGGGTKVEIK | – | – | – | – | – | – | 52.3 pM | 0.000198 s⁻¹ | 3.78e+06 M⁻¹ s⁻¹ | 6.44 fold | Enrichment ratio (at the highest selection stringency) [14]: 3.31 ratio
K4 Fab (VL W92L) (Fab, V domains shown, Fab with 8xHis tag) VH: EVQLVESGGGLVQPGGSLRLSCAASGFTFSNYAMSWVRQAPGKGLEWVATVTEGGDYNYYLDDVKGRFTISRDNAKNSLYLQMNSLRAEDTAVYYCARDRWPYFFDYWGQGTLVTVSS VL: DIQMTQSPSSLSASVGDRVTITCRASENIYSNLAWYQQKPGKSPKLLVYGAKNLADGVPSRFSGSGSGTDYTLTISSLQPEDFATYYCQHFLTTPRTFGGGTKVEIK | – | – | – | – | – | – | 147 pM | 0.000751 s⁻¹ | 5.12e+06 M⁻¹ s⁻¹ | 2.29 fold | Enrichment ratio (at the highest selection stringency) [15]: 0.416 ratio
